Measurements as given in PMC12853182, “Dynamic acetylation of a conserved lysine impacts glycerol kinase activity and abundance in the haloarchaeon Haloferax volcanii” (The Journal of Biological Chemistry, 2025).

Target: the molecule itself
Test: SEC; Superdex 200 HR 10/300 GL, 50 mM HEPES pH 7.5, 2 M NaCl, 1 mM DTT, without glycerol; His-HvGK from cells grown in ATCC, GluMM or FruMM; mass by standard curve

B1: N-terminally His-tagged Haloferax volcanii glycerol kinase (His-HvGK), wildtype, purified from H. volcanii (enzyme, UniProt D4GYI5 1-510, looked up)
chain: MSGETYVGAIDQGTTGTRFMVFDHDGKVVANAYEKHEQIYPEPGWVEHDANEIWDNTKQVIDAALSSAGLDAEQLEAIGITNQRETTLVWDRETGQPIHNAIVWQDRRTTDRIETLEAEGKTDDVRAKTGLEPDAYFSATKAEWLLDNSDPIKLQRSRPEDIRDRAADGELAFGTIDTWLIYNLTGNHITDVTNASRTMLFNIHDMEWDDELLDEFNVPRELLPEVRPSSDDDYYGTTDADGFLGAEVPVAGALGDQQAALFGQTCFDAGDAKNTYGTGSFMLMNTGDEAVMSEHGLLTTVGFQRSGEPVQYALEGSIFITGAAIEWLEDMTLIDNAAESEKLARSVESTDGVYFVPAFTGLGAPHWDQRARGTIVGMTRGTRREHIVRATLESIAFQTRDVAEAMESDSEIDLSSLRVDGGAVKNNFLCQLQSNILDTEIVRPQVDETTALGAAYAAGLAVGYWETLDELRENWQVDREFAPKDPQNVEHRYGRWKEAVDRSLDWAREE
modifications: acetyl-lysine at K153, partial occupancy by AQUA-MS (50% in FruMM, 33% in ATCC rich medium, 17% in GluMM)
notes: Glycerol kinase (GlpK) of Haloferax volcanii, UniProt D4GYI5, gene hvo_1541; theoretical molecular weight 56.7 kDa monomer; The glpK gene was amplified and cloned into a pJAM503 backbone modified for an N-terminal His-tag fusion (pJAM4351); also called His-HvGK wt; HvGKHv; source: H. volcanii, expressed from a plasmid, cells grown in ATCC 974 rich medium, GluMM or FruMM; purified (Ni-NTA); not …
stoichiometry N: 2
